Laboratory results from the RNAGym collection of RNA variant scans (doi:10.7554/elife.90254).

B1: OR4K15 (parent)
chain: GUUAACGGUCAUAGGCCAUGGAAACUAGGAGCACCAUUUCGCUGCCAGUGAAGAAAUGAACAAAGAAAAUCUGGGCCAGGCAGGCAUCAAAAGAAAUAGUCUUGCGCUCAACCAGAAAGUCUGUAAUCAUUUUAAGGGUA

Variants of: B1
Experiment: self-cleavage, relative activity (ratio to wild type); higher = more cleavage; in vitro, sequencing; the parent is a self-cleaving ribozyme

Variant	self-cleavage
GUUAACGGUCAUAGGCCAUGGAAACUAGGAGCACCAUUUCGCUGCCGGUGAAGAAAUGAACAAAGAAAAUCUGGGCCAGGCAGGCAUCAAAAGAAAUAGGCUUGCGCUCAACCAGAAAGUCUGUAAUCAUUUUAAGGGUA [A47G U100G]	2.14
GUUAACGGUCAUAGGCCAUGGAAACUAGGAGCACCAUUUCGCUGCCAGUGGAGAAAUGAACAAAGAAAAUCUGGGCCAGGCAGGCAUCAAAAGAAAUAGUCUUGCGCUCAACCAGAAAGUCUGUAAUCAAUUUAAGGGUA [A51G U130A]	1.63
GUUAACGGUCAUAGGCUAUGGAAACUAGGAGCACCAUUUCGCUGCCAGUGAAGAAAUGAACAAGGAAAAUCUGGGCCAGGCAGGCAUCAAAAGAAAUAGUCUUGCGCUCAACCAGAAAGUCUGUAAUCAUUUUAAGGGUA [C17U A64G]	0.65
GUUAACGGUCAUAGGCCAUGGCAACUAGGAGCACCAUUUCGCUGCCAGUGAAGAAAUGAACAAAGAAAAUCUGGGCCAGGCAGGCAUCAAAAGAAAUAGUCUUGCGCUCAACCAGAAAGUCUGUAACCAUUUUAAGGGUA [A22C U127C]	1.48
GUUAACGGUCAUAGGCCAUGGAAACUAGGAGCACCAUCUCGCUGCCAGUGAAGAAAUGAACAAAGAAAAUCUGGGCCAGGCAGGCAUCAAAAGAAAUAGUCUUGCGCUCAGCCAGAAAGUCUGUAAUCAUUUUAAGGGUA [U38C A111G]	0.02
GUUAACGGUCAUAGGCCAUGGAAACUAGGAGCACCAUUUCGCUGCCAGCGAAGAAAUGAACAAAGAAAAUCUGAGCCAGGCAGGCAUCAAAAGAAAUAGUCUUGCGCUCAACCAGAAAGUCUGUAAUCAUUUUAAGGGUA [U49C G74A]	0.09
GUUAACGGUCAUAGGCCAUGGAAACUAGGAGCACCAUUUCGCUGCCAGUGAAGAAAUGAACAAAGAAAAUCUGGGCCAGGCAGGCAUCAAAAGAAAUAGUCUCGCGCUCAUCCAGAAAGUCUGUAAUCAUUUUAAGGGUA [U103C A111U]	0.1
GUUAACAGUCAUAGGCCAUGGGAACUAGGAGCACCAUUUCGCUGCCAGUGAAGAAAUGAACAAAGAAAAUCUGGGCCAGGCAGGCAUCAAAAGAAAUAGUCUUGCGCUCAACCAGAAAGUCUGUAAUCAUUUUAAGGGUA [G7A A22G]	1.42
GUUAACAGUCAUAGGCCAUGGAAACUAGGAGCACCAUUUCGCUGCCAGUGAAGAAAUGAACAAGGAAAAUCUGGGCCAGGCAGGCAUCAAAAGAAAUAGUCUUGCGCUCAACCAGAAAGUCUGUAAUCAUUUUAAGGGUA [G7A A64G]	1.18
GUUAACGGUCAUAGGCCAUGGAACCUAGGAGCACCAUUUCGCUGCCAGUGAAGAAAUGAACAAAGAAAAUCUGGGCCAGGCAGGCAUCAAAAGAAAUAGUCUUGCGCUCAACCAGAAAGCCUGUAAUCAUUUUAAGGGUA [A24C U120C]	1.13
GUUAACGGUCAUAGGCCAUGGAAGCUAGGAGCACCAUUUCGCUGCCAGUGAAGAAAUGAACAAAGAAAAUCUGGGCCAGGCAGGCAUCAAAAGAAAUAGUCUUGCGCUUAACCAGAAAGUCUGUAAUCAUUUUAAGGGUA [A24G C109U]	0.46
GUUAACGGUCAUAGGCCAUGGUAACUAGGAGCACCAUUUCGCUGCCAGUGAAGAAAUGAACAAAGAAAAUCUGGGCCAGGCAGGCAUCAAAAGGAAUAGUCUUGCGCUCAACCAGAAAGUCUGUAAUCAUUUUAAGGGUA [A22U A94G]	1.84
GUUAACGGUCAUAGGCCAUGGAAACUAGGAGCACCAUUUCGCUGCCUGUGAAGAAAUGAACAAAGAAAAUCUGGGCCAGGCAGGCAUCAAAAGAAAUAGUCUUGCGCUCAACCAGAAAGUCUGCAAUCAUUUUAAGGGUA [A47U U124C]	0.5
GUUAACGGUCAUAGGCCAUGGAAACUAGGAGCACCUUUUCGCUGCCAGUGAAGAAAUGAACAAAGAAAGUCUGGGCCAGGCAGGCAUCAAAAGAAAUAGUCUUGCGCUCAACCAGAAAGUCUGUAAUCAUUUUAAGGGUA [A36U A69G]	1.56
GUUAACGGUCAUAGGCCAUGGAAACUAGGAGCACCAUUUCGCUGCCAGUGAAAAAAUGAACAAAGAAAAUCUGGGCCAGGCAGGCAUCAAAAGAAAUAGUCUUGCGCUCAACCAGAGAGUCUGUAAUCAUUUUAAGGGUA [G53A A117G]	2.26
GUUAACGGUCAUAGGCCAUGGAAACUAGGAGCACCAUUUCGCUGCCAGUGAAGAAAUGAACAAAGAAAAUCUGGGCCAGGCAGGCAUCAAAAGAAAUAGUCUUGCGCACAACCAGAAAGUCUGUAAUCAUUUUAAGGGAA [U108A U139A]	0.04
GUUAACGGUCAUAGGCCAUGGAAACUUGGAGCACCAUUUCGCUGCCAGUGAAGAAAUGAACAAAGAAAAUCUGGGCCAGGCAGGCAUCAAAAGAAAUAGUCUUGCGCUCAACCAGAAAGACUGUAAUCAUUUUAAGGGUA [A27U U120A]	1.85
GUUAACGGUCAUAGGCCAUGGAAACUAGGAGCACCAUUUCGCUGCCAGUGAAGAAAUGAACUAAGAAAAUCUGGGCCAGGCAAGCAUCAAAAGAAAUAGUCUUGCGCUCAACCAGAAAGUCUGUAAUCAUUUUAAGGGUA [A62U G83A]	1.98
GUUAACGGUCAGAGGCCAUGGAAACUAGGAGCACCAUUUCGCUGCCAGUGAAGAAAUGAACAAAGAAAAUCUGGGCCAGGCUGGCAUCAAAAGAAAUAGUCUUGCGCUCAACCAGAAAGUCUGUAAUCAUUUUAAGGGUA [U12G A82U]	0.3
GUUAACGGUCAUAGGCCAUGGAAACUAGGAGCACCAUUUCGCUGCCAGUGAAGAAAUGAACAAAGAAAAUCUGGGCCAGGCAGGCACCAAAAGAAAUAGCCUUGCGCUCAACCAGAAAGUCUGUAAUCAUUUUAAGGGUA [U87C U100C]	2.72
